Measured values: US20110151541

Biological target: gelatin

B1: recombinant stem bromelain (protein)
chain: SRDEPNDPMMKRFEEWMAEYGRVYKDDDEKMRRFQIFKNNVKHIETFNSRNENSYTLGINQFTDMTKSEFVAQYTGVSLPLNIEREPVVSFDDVNISAVPQSIDWRDYGAVNEVKNQNPCGSCWSFAAIATVEGIYKIKTGYLVSLSEQEVLDCAVSYGCKGGWVNKAYDFIISNNGVTTEENYPYLAYQGTCNANSFPNSAYITGYSYVRRNDERSMMYAVSNQPIAALIDASENFQYYNGGVFSGPCGTSLNHAITIIGYGQDSSGTKYWIVRNSWGSSWGEGGYVRMARGVSSSSGVCGIAMAPLFPTLQSGANAEVIKMVSET
B1 showed a Diameter of halo zones (mm), Average of 9 mm, a Diameter of halo zones (mm), Plate 1 of 8 mm and a Diameter of halo zones (mm), Plate 2 of 10 mm. It also gave a Diameter of halo zones (mm), Plate 3 of 9 mm.
